Data from PMC9712689 (Communications Biology, 2022).

T1: RlpA-Δ32·MltF2 complex (MST) (P. aeruginosa PAO1, UniProt Q9X6V6;Q9HZY1, amine reactive RED-NHS dye)
T1 sequence 1: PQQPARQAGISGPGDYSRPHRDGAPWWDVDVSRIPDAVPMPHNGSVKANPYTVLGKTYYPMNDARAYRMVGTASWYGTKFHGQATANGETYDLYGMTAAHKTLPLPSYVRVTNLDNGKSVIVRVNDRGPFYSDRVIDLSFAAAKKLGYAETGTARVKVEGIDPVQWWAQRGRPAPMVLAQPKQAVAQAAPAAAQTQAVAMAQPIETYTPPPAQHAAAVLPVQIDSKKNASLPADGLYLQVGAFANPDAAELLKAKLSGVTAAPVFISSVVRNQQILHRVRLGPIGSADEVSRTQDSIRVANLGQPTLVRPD
T1 sequence 2: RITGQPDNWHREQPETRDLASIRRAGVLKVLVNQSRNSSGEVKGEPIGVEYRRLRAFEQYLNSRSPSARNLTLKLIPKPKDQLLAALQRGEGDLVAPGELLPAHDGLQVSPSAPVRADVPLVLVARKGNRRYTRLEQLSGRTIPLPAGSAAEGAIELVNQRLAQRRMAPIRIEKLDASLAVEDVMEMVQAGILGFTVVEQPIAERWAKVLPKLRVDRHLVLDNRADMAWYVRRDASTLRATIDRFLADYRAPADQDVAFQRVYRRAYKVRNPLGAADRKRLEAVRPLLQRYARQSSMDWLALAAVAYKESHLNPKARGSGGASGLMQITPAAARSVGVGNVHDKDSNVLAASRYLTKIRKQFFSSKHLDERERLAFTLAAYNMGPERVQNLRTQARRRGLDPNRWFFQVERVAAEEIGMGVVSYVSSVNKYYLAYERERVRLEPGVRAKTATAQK

T2: RlpA-Δ32, fluorescently labeled (P. aeruginosa PAO1, UniProt Q9X6V6 32-342, amine reactive RED-NHS dye)
T2 construct: source: E. coli BL21-star (DE3), purified (Ni-NTA), labelled with RED-NHS dye
T2 sequence: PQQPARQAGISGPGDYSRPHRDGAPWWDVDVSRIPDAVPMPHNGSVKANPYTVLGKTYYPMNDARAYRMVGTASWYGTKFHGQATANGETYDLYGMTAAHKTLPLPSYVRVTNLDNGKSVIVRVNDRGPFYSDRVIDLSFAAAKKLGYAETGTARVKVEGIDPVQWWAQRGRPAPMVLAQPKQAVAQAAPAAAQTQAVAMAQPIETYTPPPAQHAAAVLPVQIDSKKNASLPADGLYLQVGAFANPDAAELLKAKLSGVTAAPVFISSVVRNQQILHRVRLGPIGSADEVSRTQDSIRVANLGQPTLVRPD

T3: RlpA-Δ32 (P. aeruginosa PAO1, UniProt Q9X6V6 32-342)
T3 construct: source: E. coli BL21-star (DE3), purified (Ni-NTA)
T3 sequence: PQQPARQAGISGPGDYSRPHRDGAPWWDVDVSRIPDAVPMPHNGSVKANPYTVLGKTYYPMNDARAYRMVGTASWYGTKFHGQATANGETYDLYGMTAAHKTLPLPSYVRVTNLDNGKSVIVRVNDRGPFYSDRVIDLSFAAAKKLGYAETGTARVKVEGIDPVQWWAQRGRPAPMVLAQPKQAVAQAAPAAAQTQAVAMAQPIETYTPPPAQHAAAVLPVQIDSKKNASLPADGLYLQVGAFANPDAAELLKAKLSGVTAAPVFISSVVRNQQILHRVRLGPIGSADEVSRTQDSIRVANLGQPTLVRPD


Assays:
Conditions in all cases: both partners purified
[1] = target: T1, RlpA-Δ32·MltF2 complex (MST); test: MST
[2] = target: T2, RlpA-Δ32, fluorescently labeled; test: MST
RlpA-Δ32 = target: T3, RlpA-Δ32; test: SPR

Row | Binder | Kd [1] | Kd [2] | Kd (RlpA-Δ32) | koff (RlpA-Δ32) | kon (RlpA-Δ32)
1 | AlgO (natural protein, source: E. coli, purified (Ni-NTA or Strep-Tactin)) STAVSVGSAQNSWDSLQPDREQVIASLNVVELLKRHHYNKPPLNDERSAKIYDSYLKMLDPARMYFTAGDIAEFDRWRNRFDDFLKSGDLDPGFVIYKRHLDRLKGRLDYALAMLDKGVDKIDFSVDESLLIDREKAPWAKDTAELDDLWRKKVKDEVLRLKITGKDDKAIQEQLTKRYKNQLSRLKQTRSEDIFQAYINAFAQSYDPHTQYLSPDNAENFDINMSLSLEGIGAVLQSDNDYVKVVRLVPAGPAAKSKQIATSDKIIGVAQGKGEMVDVVGWRLDEVVKLIRGPKGSQVRLEVIPASNAPNDQTSKIVAITREAVKLEDQAAKKSIIKVDHEGRSYKLGVIDLPAFYLDFKAYRAGDPNYKSTTRDVKKLVAELQKDKVDGIVLDLRNNGGGSLQEATELTGLFIDQGPTVLVRNSDGRVDVLNDDEGKAFYTGPLAVLVNRLSASASEIFAGAMQDYHRALILGGQTFGKGTVQTIQPLNHGELKLTLAKFYRVSGQSTQHQGVIPDISYPSIVDDKEIGESALPDSMPWDTIRPVVKDEANPFKPFLAQLKAQHDARTENNADFVYARERLALAQELMKEKTVSLNEAKRRAQQTSIENRQLAMENALRKSKGQEPLKELKREDENALPEEDDKTKPQDDAYLTESGHILLDYLNLNSAVAKH | 16000 nM | – | – | – | –
2 | TypA (natural protein, P. aeruginosa PAO1, UniProt Q9HU67 1-605, looked up) MIENLRNIAIIAHVDHGKTTLVDKLLKLSGTLDRKEAESERVMDSNDQEKERGITILAKNTAIKWNGYNINIVDTPGHADFGGEVERVMSMVDSVLLVVDAQDGPMPQTRFVTQKAFKAGLRPIVVVNKIDRPGARPDWVIDQIFDLFDNLGATDEQLDFPIVYASALNGIAGLDHEKMDDNMDALFQAIIDHVPAPVVDTEGPFQMQISQLDYNSFLGVIGIGRITRGKVKSNTPVVAISDDGSKRNGRILKIMGHHGLQRVEVAEAEAGDIVCVSGMEELFISDTLCDPQNVEALPPLTVDQPTVSMTFQVNDSPFAGREGKFVTSRNIKERLEKELLHNVALRVEPGDSPEKFKVSGRGELHLSVLIETMRREGFELAVGRPEVVIIEKDGEKQEPYENVTIDIEEQHQGSVMEQMGLRKGDLSNMIPDGKGRVRLEYTIPARGLIGFRNNFLTLTSGTGILTSTFSHYGPIKAGEVSNRQNGVLVSMATGTALTYSLETLQSRGKLFLGPGDEIYEGQLAGINSRDNDLVINPTKGKKLDNMRASGKDEVIALVPPIRFTLEQALEFIADDELVEVTPKSIRLRKKMLNENDRKRYERSKV | 1800 nM | – | – | – | –
3 | SltB2 (enzyme, P. aeruginosa PAO1, UniProt Q9I4G6 1-398, looked up) QPDASSFPSCLAGLQKKAQAQGISADSYERFTSGLQADLSVLDLLDAQPEFTTPLWDYLAGLVDEQRVSDGKAMLAQHDKLLDQVAARYGVDKYTVVAVWGVESDYGRIFGKRPLLTSLSTLSCYGRRQSFFQGEFLATLKLLQAGDIRDAGITGSWAGAFGHTQFMPSTYARIAVDFDGDGRRDLVGSVPDALGSTANYLKKAGWRTGQPWGYEVKVPADFPASLAGRGKRQPLSAWVARGVRRVDGQPLPGGDEKAAILLPAGAQGPAFLVYRNYDAIYSYNAAESYALAIALLSDRLRGGSGLVASWPTDDPGISRLERKQLQKALLARGYDIGEADGLIGTSTRKAIQAEQKRLGLTPADGRAGRKILEALKGAQP | 150 nM | – | – | – | –
4 | PilA (natural protein, source: E. coli, purified (Ni-NTA or Strep-Tactin)) PQYQNYVARSEGASALATINPLKTTVEESLSRGIAGSKIKIGTTASTATETYVGVEPDANKLGVIAVAIEDSGAGDITFTFQTGTSSPKNATKVITLNRTADGVWACKSTQDPMFTPKGCDN | 309 nM | 240 nM | 1980 nM | 0.00218 s⁻¹ | 1100 M⁻¹ s⁻¹
5 | MltD (enzyme, P. aeruginosa PAO1, UniProt Q9I2T2 1-534, looked up) QGSGQIKGEAQAKAARPGARAVDVQFNPSWLHTQPGQNAAYNDIWDRMRDGFQLQDAISTNPRIERQRLWFLSNQSFLEQSSARGSLYMHYVVERLEERNMPLELALLPVIESAYNPFALSRSNAAGLWQFIPATGQHFNLRQTNFYDGRRDITASTNAALTYLERLHDMFNGDWMLALAAYNAGEGTVSRAIERNEKLGLPTDYWNLPLPQETQDYVPKLLALSQIVMAPDSYGISLNPINNEPYFQAVRVKRGIDLSSVAALANLDEDELYQLNPAYKRRVTMDGPQQLLVPMEKAAFLTASLDTLKPKEVTAWQQYRVRSGDSLHSIANRYRITVAELKSANRLSSNHLRKGQQLSIPGQIAGGAVKPVYQQLARQASTPARTRSYKVKNGDSLWQIARNNGVDVNDLKRWNGLDKHALKVGQTLKLQGGTQALAARKGNAAGKRDSATYYKVKQGDSMYLIAKRFNVEMKHLQRWNPRSKQALKPGQTLTLYLDTASR | 220 nM | – | – | – | –
6 | MltB (enzyme, P. aeruginosa PAO1, UniProt Q9HVX3 1-367, looked up) SSEPTPPPKPAAKPQARTVISPRPVRQSVQPILPLRGDYANNPAAQHFIDRMVSQHGFNRQQLHDLFAQTQRLDWVIRLMDRQAPTYTPPSGPNGAWLRYRKKFVTPGNVQNGVLFWDQYETDLQRASRVYGVPPEIIVGIIGVETRWGRVMGKTRIIDALSTLSFSYPRRAEFFSGELEQFLLQARKEGTDPLALRGSYAGAMGYGQFMPSSFTKYAVDFDGDGHIDLWNPRDAIGSVANYFKQHGWVSGDRVAVPASGRAPSLEDGFKTLYPLDVLASAGLRPQGPLGGHRQASLLRLDMGRNYQYWYGLPNFYVITRYNHSTHYAMAVWELGKEVDRVRHRSVVRQD | 110 nM | – | – | – | –
7 | LptE (natural protein) not shown | 150 nM | 77 nM | – | – | –
8 | MltA (enzyme, P. aeruginosa PAO1, UniProt Q9I4B6 1-385, looked up) DDGKKEPPPKPAEVTTYNSVPWDALPATSDADLLAGFNAWRSACARLAKDPVWGEPCASATTVAADPTAVRAFLQERMQVYSLRSSSNGDQGLITGYYEPVYHGSLSQGEKTPVPVYGVPDDLVVVALESVYPELKGKRLRGRLEGRVLKPYDDAATIRDNGSSAPVLAWLGDPMDLQFLQIQGSGRIQLEDGRQLRIGYGDQNGHPYKPVGRWLVEQGLVPKEEISMKRIRDWAEANPQRVSELLASNPSFVFFSLRPDSDEGPRGSLNVPLTDGYSVAIDRKVIPLGSLMWLSTTRPDDGSAVVRPVAAQDTGGAIVGEVRADLFWGTGDAAGELAGHMKQPGRLWLLWPKGAPLPAS | 35 nM | – | – | – | –
9 | PBP4 (enzyme, P. aeruginosa PAO1, UniProt Q9HZG1 1-476, looked up) QVNATLPANVQKALQTNKLTGNDLSLVLIPLDGPGNPTYYNADVSVNPASTMKLFTTYAALEMLGPTYQWKTEFYTDGQLKNGVLNGNLYLKGGGDPKLNMEKLWLLMRDLRANGVTKVTGDLVLDRSYFNIPQLPVFNDDGGDDTKPFLVGPDSLLVNLKSVRMVVRTDGNKVNVQMDPPLANVRIDNQVKMTAPATCPAWPKLRFSPVTQFDGTTLLATGQIPQGCSAQTYMSLLDHPGYTAGAVRGIWQELGGSILGKDRQGSVPRNATLIAKAFSPDLVEIIRDINKYSNNTMARQLFLSIGAQFRNSADGDDAQAAQRVVRQWLARKGITAPRLVMENGSGLSRQERVSAREMAAMLQAAWHSPYAAEYISSLPLAGLDGTMRKRLRRTALVGEAHVKTGTLNTVRALAGFSRDASGHNWVVVAILNSPRPWGASAILDQVLLSLHARK | 240 nM | – | – | – | –
10 | PBP7 (enzyme, P. aeruginosa PAO1, UniProt P72161 24-310, looked up) SPPPKAGLPLQQELASGSALVTDQNTGKVLYSRNPDLVVPIASITKLMTAMVVLDSKLPLDEVLPIAISETSEMRGVFSRVRVGSQISRRDMLLLALMSSENRAAASLAQNYPGGKNAFVKAMNAKAHALGMKNTRYVEPTGLSLHNVSTARDLTRLLVASRQYPLLSQWSTTPEKTVAFRHPNYTLGFRNTNHLINNKTWNIQLTKTGFTNEAGHCLVMRTTINRSPVNLVVLDAFGKYTHFADATRLRRWLETGQVTAIPAAAKAYRLQRDRERGLGQPVAQAVR | – | 430 nM | – | – | 5900 M⁻¹ s⁻¹
11 | SltB1 (enzyme, P. aeruginosa PAO1, UniProt Q9HX24 1-340, looked up) GDYDGSPQVAEFVSEMTRDYGFAGEQLMGLFRDVNRKQSILDAISRPAERVKQWKEYRPIFISDARISRGVDFWNKHAEDLARAEKEYGVPAEIIVSIIGVETFFGRNTGSYRVMDALSTLGFDYPPRADFFRKELREFLLLAREQQVDPLSLTGSYAGAMGLPQFMPSSFRAYAVDFDGDGHINIWSDPTDAIGSVASYFKQHGWVTGEPVVSVAEINDESAESAVTRGVDPTMSLGELRARGWRTHDALRDDQKVTAMRFVGDKGIEYWVGLPNFYVITRYNRSAMYAMAVYQLAGEIARARGAH | 95 nM | 140 nM | 3850 nM | 0.00127 s⁻¹ | 330 M⁻¹ s⁻¹
12 | MltF (enzyme, P. aeruginosa PAO1, UniProt Q9HXN1 33-490, looked up) PTALERVQKEGVLRVITRNSPATYFQDRNGETGFEYELAKRFAERLGVELKIETADNLDDLYAQLSREGGPALAAAGLTPGREDDASVRYSHTYLDVTPQIIYRNGQQRPTRPEDLVGKRIMVLKGSSHAEQLAELKKQYPELKYEESDAVEVVDLLRMVDVGDIDLTLVDSNELAMNQVYFPNVRVAFDFGEARGLAWALPGGDDDSLMNEVNAFLDQAKKEGLLQRLKDRYYGHVDVLGYVGAYTFAQHLQQRLPRYESHFKQSGKQLDTDWRLLAAIGYQESLWQPGATSKTGVRGLMMLTNRTAQAMGVSNRLDPKQSIQGGSKYFVQIRSELPESIKEPDRSWFALAAYNIGGAHLEDARKMAEKEGLNPNKWLDVKKMLPRLAQKQWYAKTRYGYARGGETVHFVQNVRRYYDILTWVTQPQMEGSQIAESGLHLPGVNKTRPEEDSGDEKL | 260 nM | – | – | – | –
